Test results from patent publication US20060153775A1 (BRACCO INTERNATIONAL B V, published 2006).
Non-standard residues stand in square brackets, D forms with d. No end group written: not given here. AEEA = NCCOCCOCC(=O)O

T1: NP-1/Fc (R&D Systems)
T1 chain: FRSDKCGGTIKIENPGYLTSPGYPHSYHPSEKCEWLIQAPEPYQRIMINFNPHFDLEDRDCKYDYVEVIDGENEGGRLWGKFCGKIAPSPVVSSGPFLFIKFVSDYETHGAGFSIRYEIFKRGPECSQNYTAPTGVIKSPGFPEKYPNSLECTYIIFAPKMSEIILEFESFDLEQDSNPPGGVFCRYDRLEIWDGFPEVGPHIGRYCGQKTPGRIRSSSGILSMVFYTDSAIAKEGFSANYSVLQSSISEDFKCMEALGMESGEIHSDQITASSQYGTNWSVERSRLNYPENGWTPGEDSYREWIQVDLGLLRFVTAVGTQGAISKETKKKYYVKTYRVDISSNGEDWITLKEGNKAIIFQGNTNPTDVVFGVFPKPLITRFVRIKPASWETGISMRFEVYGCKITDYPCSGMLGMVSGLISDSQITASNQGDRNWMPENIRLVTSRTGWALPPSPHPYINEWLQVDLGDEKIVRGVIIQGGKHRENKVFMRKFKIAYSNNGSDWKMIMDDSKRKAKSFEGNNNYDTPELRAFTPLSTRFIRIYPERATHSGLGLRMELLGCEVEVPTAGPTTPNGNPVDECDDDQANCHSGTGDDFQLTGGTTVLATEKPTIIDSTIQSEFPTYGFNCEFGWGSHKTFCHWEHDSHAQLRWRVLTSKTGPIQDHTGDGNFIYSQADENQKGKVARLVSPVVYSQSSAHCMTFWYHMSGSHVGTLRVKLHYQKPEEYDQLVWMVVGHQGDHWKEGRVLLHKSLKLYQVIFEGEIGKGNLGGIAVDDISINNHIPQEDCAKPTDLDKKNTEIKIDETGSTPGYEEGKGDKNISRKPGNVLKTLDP


Tests used:
[1] = biological target: T2, neuropilin-1 on HUVEC (neuropilin-1-expressing cells) (human, UniProt O14786 22-923); test: Qdot binding to HUVEC, fluorescence microscopy
T2 construct: whole, on cells; The assay was done on whole HUVEC; also called NP-1; endothelial cells
Experimental: Human umbilical vein endothelial cells (HUVEC) were grown to near confluency on collagen 1-coated 8-well chamber slides (BD Biosciences) in EGM-2 medium (Cambrex). […] The slides were incubated 45 min at 37° C. in a tissue culture incubator with 5% CO₂ then incubated an additional 45 min at room temperature in ambient air. After washing five times with D-PBS (30 sec per wash), the cells were fixed with ice-cold acetone for 2 min, rinsed again with D-PBS, and mounted with SlowFade+Dapi (Molecular Probes). The slide wells were examined with a fluorescence microscope equipped with a filter set optimized for 655 nm quantum dots (Omega).

NP-1/Fc (R&D Systems) [2] = biological target: T3, NP-1/Fc (R&D Systems); test: competition with 250 pM 125I-VEGF165 for plate-coated NP-1/Fc
T3 construct: Bought reagent; also called Neuropilin-1/Fc; Npn-1
Experimental: (§1) Competitive binding assays with microtiter plates coated with NP-1/Fc (R&D systems) were performed using ¹²⁵I-VEGF₁₆₅ as radioligand (Amersham Pharmacia Biotech Cat. No. IM274, Specific Activity: 1000-2500 Ci/mmol). An assay buffer consisting of Hank's Balanced Salt Solution (HBSS), 25 mM HEPES, and 0.1% BSA, pH 7.4 was used, and for all experiments, Assay volume per well was 75 μL. Plates (Nunc MaxiSorp white opaque Microtiter plate [C-bottom, 437796]) were coated by incubating the wells with 75 μL of a solution containing 3 μg/mL NP-1/Fc in D-PBS/0.1% NaAzide overnight at 4° C. after covering with sealing tape (Dynex, VWR Cat. No. 62402-931). The next day all wells, even control wells lacking NP-1/Fc, were blocked 2 hrs with blocking buffer (1% BSA in D-PBS with 0.05% v/v Tween-20) then washed 4× with PBST (D-PBS/0.05% v/v Tween-20) before starting the assay. All points were derived from triplicate wells, and for each set of replicates in NP-1/Fc-coated wells, a companion set in the absence of the receptor was included. […] Solutions were added to 1.2 mL polypropylene tubes conforming to the microtiter format (Costar Cat. No. 29442-602), and transferred from these tubes to microtiter wells, without further dilution, using a multichannel pipetter. After addition of the appropriate solutions, microtiter plates were incubated at 4° C. for 2 hours. Following the incubation, plates were handwashed 5 times with D-PBS containing 0.05% Tween-20 and 0.1% BSA. The plates were blotted dry and 25 μL deionized water and 100 μL scintillation fluid (Optiphase SuperMix, Wallac) were added to each well. Plates were agitated using a Plate Shaker (Hyperion, Cat. No. 4030-100F) for 3-5 minutes and were then counted using a Microplate Scintillation Counter (Wallac Microbeta Trilux). A set of serially diluted ¹²⁵I-VEGF₁₆₅ standard wells ranging from 200 to 0.04 pM were included with each experiment to aid in quantification of the amount of radiolabel bound. VEGF₁₆₅ (Cat. No. 100-20) was obtained from Peprotech.

NP-1/Fc (R&D Systems) [3] = biological target: T1, NP-1/Fc (R&D Systems); test: fluorescence polarization, competition of OG-labeled D41 binding to NP-1/Fc
Experimental: (§2) The ability of various compositions comprising TKPPR monomers or multimers to bind to NP-1/Fc and KDR-Fc was evaluated using FP. […] FP values (mP) for each substrate was measured by titrating the ligand (5-20 nM) with receptor protein using a Jolley Research and Consulting FPM-1 fluorescence Polarization analyzer. In each of these experiments the observed polarization values were plotted against receptor concentration. The mP values for 100% binding of tracer labeled ligand to receptor protein was calculated using the software provided by the vendor.

NP-1/Fc (R&D Systems) [4] = biological target: T1, NP-1/Fc (R&D Systems); test: competition with 250 pM 125I-VEGF165 for plate-coated NP-1/Fc
Experimental: as §1

[5] = biological target: T4, soluble human KDR/Fc chimera (R&D Systems Inc.) (human, UniProt P35968 20-764); test: competition with 125I-VEGF165 for plate-coated KDR-Fc
T4 construct: Bought reagent; Fc part of the bought chimera not given, not described

NP-1/Fc (R&D Systems) [6] = biological target: T3, NP-1/Fc (R&D Systems); test: fluorescence polarization, competition of OG-labeled D41 binding to NP-1/Fc
Experimental: as §2

NP-1/Fc (R&D Systems) [7] = biological target: T3, NP-1/Fc (R&D Systems); test: fluorescence polarization, OG-labeled ligand (5-20 nM) titrated with NP-1/Fc, 37 C
Experimental: as §2

T2 sequence (O14786 22-923): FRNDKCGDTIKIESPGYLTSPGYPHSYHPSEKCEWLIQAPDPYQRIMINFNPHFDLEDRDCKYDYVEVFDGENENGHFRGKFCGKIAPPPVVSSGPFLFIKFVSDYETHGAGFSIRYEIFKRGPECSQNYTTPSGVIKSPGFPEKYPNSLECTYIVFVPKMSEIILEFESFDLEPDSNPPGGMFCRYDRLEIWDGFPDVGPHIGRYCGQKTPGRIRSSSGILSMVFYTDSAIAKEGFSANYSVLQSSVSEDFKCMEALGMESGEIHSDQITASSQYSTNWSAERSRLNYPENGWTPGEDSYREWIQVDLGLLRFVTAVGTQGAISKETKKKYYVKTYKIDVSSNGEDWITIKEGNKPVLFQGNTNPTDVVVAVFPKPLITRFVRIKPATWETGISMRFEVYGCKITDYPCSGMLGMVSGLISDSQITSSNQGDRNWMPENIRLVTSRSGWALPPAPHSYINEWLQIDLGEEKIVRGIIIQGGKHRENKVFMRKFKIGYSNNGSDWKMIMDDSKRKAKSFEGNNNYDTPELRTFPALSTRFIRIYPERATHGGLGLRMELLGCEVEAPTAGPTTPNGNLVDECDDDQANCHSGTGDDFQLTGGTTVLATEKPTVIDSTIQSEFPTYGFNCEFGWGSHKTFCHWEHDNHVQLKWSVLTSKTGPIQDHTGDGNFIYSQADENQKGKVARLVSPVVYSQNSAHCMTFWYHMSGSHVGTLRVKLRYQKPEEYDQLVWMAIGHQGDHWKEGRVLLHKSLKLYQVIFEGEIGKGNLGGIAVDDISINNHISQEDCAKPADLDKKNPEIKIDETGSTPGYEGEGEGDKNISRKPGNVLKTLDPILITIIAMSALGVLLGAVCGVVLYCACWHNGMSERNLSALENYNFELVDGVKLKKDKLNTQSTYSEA
T4 sequence (P35968 20-764, change not shown): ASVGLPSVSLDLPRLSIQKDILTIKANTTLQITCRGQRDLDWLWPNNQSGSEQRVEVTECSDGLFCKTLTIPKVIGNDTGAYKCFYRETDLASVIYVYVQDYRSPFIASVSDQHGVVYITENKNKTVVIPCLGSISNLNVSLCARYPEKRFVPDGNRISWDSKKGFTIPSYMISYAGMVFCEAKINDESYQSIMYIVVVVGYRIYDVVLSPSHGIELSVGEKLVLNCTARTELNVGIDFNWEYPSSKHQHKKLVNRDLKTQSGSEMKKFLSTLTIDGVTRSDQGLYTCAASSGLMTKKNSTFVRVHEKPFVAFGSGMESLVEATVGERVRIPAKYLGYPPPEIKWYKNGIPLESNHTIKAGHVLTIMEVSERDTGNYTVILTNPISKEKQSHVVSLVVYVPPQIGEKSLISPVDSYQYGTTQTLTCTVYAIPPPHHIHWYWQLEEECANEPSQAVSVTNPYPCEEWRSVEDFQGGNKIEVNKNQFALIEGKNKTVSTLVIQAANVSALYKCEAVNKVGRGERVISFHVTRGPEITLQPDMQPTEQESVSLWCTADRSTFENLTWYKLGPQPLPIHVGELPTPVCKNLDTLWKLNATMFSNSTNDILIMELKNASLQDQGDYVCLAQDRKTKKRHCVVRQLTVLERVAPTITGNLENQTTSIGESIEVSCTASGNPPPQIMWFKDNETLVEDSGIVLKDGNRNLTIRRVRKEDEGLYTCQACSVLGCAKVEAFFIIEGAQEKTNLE

Binder | IC50 (NP-1/Fc (R&D Systems) [2]) [µM] | IC50 (NP-1/Fc (R&D Systems) [4]) [µM] | further results
TKPPR (also: further groups not given here, The full structure of D51 ([M+H] 1004.5) stands only in a drawing; also called D51-conjugated Qdots; linear monomeric TKPPR-conjugated Qdots) [Qdots conjugated with monomeric TKPPR (D51)] |  |  | binding result [1]: binds
TKPPR (also: tetramer: C-terminal Arg of each TKPPR linked to amino groups of branched Lys-Lys(Lys)-Gly core, Gly carries TTDA-Oregon Green, The lysine core (three Lys and one Gly) is not written as a chain of its own; also called Reverse Tetramer; compound 16) [TKPPR tetramer D43 on a lysine core with trioxa Oregon Green at the C-terminal] | 8 |  | 
VEGF165 (ligand, UniProt P15692-4 27-191, looked up, 125I label on the radioligand form (Amersham IM274), mature; The labelled and the unlabelled protein are kept as one molecule; also called unlabeled VEGF) APMAEGGGQNHHEVVKFMDVYQRSYCHPIETLVDIFQEYPDEIEYIFKPSCVPLMRCGGCCNDEGLECVPTEESNITMQIMRIKPHQGQHIGEMSFLQHNKCECRPKKDRARQENPCGPCSERRKHLFVQDPQTCKCSCKNTDSRCKARQLELNERTCRCDKPRR |  | 0.0005 | IC50 (NP-1/Fc (R&D Systems) [3]): 200 nM
{Oregon Green (5-isomer)}-GTKPPR-OH (also called D44; OG-TKPPR) [Oregon Green (5-isomer)-GTKPPR-OH] |  | 30 | binding result [5]: no binding
TKPR (Naturally occurring tetrapeptide, used as free peptide; also called free tuftsin) [Tuftsin (TKPR)] |  | 280 | 
TKPPR (also called D45; TKPPR-OH) [TKPPR (L-threonyl-L-lysyl-L-prolyl-L-prolyl-L-arginine)] | 43 |  | IC50 (NP-1/Fc (R&D Systems) [6]): 80 µM
[AEEA]TKPPR (also: four TKPPR on a branched scaffold, thiol coupled through LC-SMCC to quantum dots, Many D50 molecules on each 655 nm quantum dot; also called D50-conjugated Qdots; branched tetrameric TKPPR-conjugated Qdots) [Qdots conjugated with tetrameric TKPPR (D50)] |  |  | binding result [1]: binds
[AEEA]TKPPR (also: tetramer of four TKPPR on a branched non-peptide scaffold, one Oregon Green label on scaffold, also called tetrameric TKPPR; fluorescently-labeled TKPPR tetramer) [TKPPR tetramer D41, OG-(TKPPR)4] | 0.13 |  | Kd (NP-1/Fc (R&D Systems) [7]): 25 to 50 nM
[AEEA]TKPPR (also: dimer on branched bis-acid scaffold carrying one Oregon Green) [TKPPR dimer D40, OG-(TKPPR)2] | 3 |  | 
